Experiments:
[1] = tested on: pc/293 cells (HEK293 cells transfected with pcDNA3 vector); assay: Adhesion of pc/293 cells to βig-h3; format: cell-based, human; details: plate coated with βig-h3; control transfectant
Procedure: (§1) To construct a human β3 integrin expression vector, RT-PCR was performed using a human placenta poly(A)^+ RNA as a template, thereby generating a 2.4-kb β3 cDNA (Chandrika, S. K. et al., J. Biol. Chem., 272:16390-16397, 1997). The amplified β3 cDNA was digested with HindIII/XbaI, and then cloned into the pcDNA3 vector (Invitrogen). The resulting vector was named “β3/pcDNA3”. Then, 1 μg of the β3/pcDNA3 vector was introduced into HEK293 cells (ATCC, catalog No. CRL 1573) using lipofectamin (Gibco). A control was introduced with a pcDNA3 vector containing no human β3 cDNA. Since all the vectors contain a G418 selection marker, the stable transfected cells were screened using 1 mg/ml of G418. The cell transfected with the β3/pcDNA3 vector was named “β3/293”, and the cell transfected with the pcDNA3 vector (control) was named “pc/293”. Each of the screened transfectants was incubated in DMEM (Dulbecco's Modified Eagle Medium) containing 10% FBS, streptomycin and penicillin. Then, cell adhesion assay was performed in the same manner as in Example 2.

[2] = tested on: HUVECs; assay: HUVECs migration assay in transwell plate coated with βig-h3; format: cell-based, human; details: 10 μg/ml βig-h3 His-β-b coated; 6-8 hours; data not shown
Procedure: Firstly, to examine whether βig-h3 is involved in the migration of endothelial cells, the present inventors performed cell migration assay. The cell migration assay was performed in a transwell plate (8 μm pore size, Costar, Cambridge, Mass.). The undersurface of the membrane was coated with the recombinant βig-h3 His-β-b protein (10 μg/ml) prepared in Example 1 at 4° C., and then, blocked for 1 hour at room temperature with PBS buffer containing 2% BSA. Meanwhile, HUVECs were added with an anti-αvβ3 antibody (LM609) or an anti-αvβ5 antibody (P1F6) and preincubated at 37° C. for 30 minutes. A control was added with mouse IgG. Then, the HUVECs preincubated with the antibody were suspended in medium at a density of 3×10^5 cells/ml, and 0.1 ml of the cell suspension was added to the upper compartment of the filter. The cells were allowed to migrate at 37° C. for 6-8 hours.
Migration was terminated by removing the cells from the upper compartment of the filter with a cotton swab. The filters were fixed with 8% glutaraldehyde and stained with crystal violet. The extent of cell migration was determined by light microscope, and within each well, cell counting was done in nine randomly selected fields HPF (Microscopic high power fields, ×200).
Then, the present inventors examined whether the migration of endothelial cells is inhibited by the YH18 synthetic peptide. […]

[3] = tested on: β3/293 cells (HEK293 cells transfected with human β3 integrin expression vector); assay: Adhesion of β3/293 cells to βig-h3 and its inhibition; format: cell-based; details: plate coated with βig-h3
Procedure: as §1
In the present invention, to further confirm that βig-h3 mediates endothelial cell adhesion through the αvβ3 integrin, cell adhesion assay using antibodies that block the function of integrins was performed in the same manner as in Example 3-1. […]

[4] = tested on: HUVECs cell membrane; assay: Binding of biotin-βig-h3 to HUVECs surface (Western immunoblotting); set-up: species or system human; details: biotin-βig-h3, 4° C. 5 hours
Procedure: To confirm that HUVECs adhesion that is mediated by βig-h3 depends on αvβ3 integrin, the present inventors tested the binding affinity of βig-h3 in the presence of an antibody that specifically blocks the function of the integrin. This binding assay was performed according to the method described by Maile, L. A., et al., J. Biol. Chem., […].
First, HUVECs were suspended in medium at a density of 1×10^5 cells/ml. 1 ml of the cell suspension was preincubated with anti-αvβ3 antibody (LM609) or anti-αvβ5 antibody (P1F6) at 37° C. for 30 minutes. Thereafter, the preincubated cells were incubated with biotinylated βig-h3 (hereinafter, referred to as “biotin-βig-h3”) in a serum-free medium containing 0.1% BSA at 4° C. for 5 hours. The biotin-βig-h3 was added at concentrations of 1×10^−10, 1×10^−9 and 5×10^−9 μm, respectively. Then, the cells were washed three times with PBS buffer (pH 7.4), and dissolved at 4° C. in ice-cold buffer A (10 mM Tris-Cl, pH 7.4, 150 mM NaCl, 1% Nonidet P-40, 1% sodium deoxycholate, 0.5% SDS, 0.02% sodium azide, 1 mM EDTA, 1 mM phenylmethylsulfonyl fluoride). The cell lysates were clarified by centrifugation at 13,000 rpm for 30 minutes at 4° C. Equal amounts of protein were then separated by SDS-PAGE, 8% gel. The amount of biotin-βig-h3 was determined by Western immuno-blotting. […]

B1: βig-h3: recombinant human βig-h3 protein that expresses all of four fas-1 domains; biotinylated form used in binding assay (protein)
chain: YQRKICGKSTVISYECCPGYEKVPGEKGCPAALPLSNLYETLGVVGSTTTQLYTDRTEKLRPEMEGPGSFTIFAPSNEAWASLPAEVLDSLVSNVNIELLNALRYHMVGRRVLTDELKHGMTLTSMYQNSNIQIHHYPNGIVTVNCARLLKADHHATNGVVHLIDKVISTITNNIQQIIEIEDTFETLRAAVAASGLNTMLEGNGQYTLLAPTNEAFEKIPSETLNRILGDPEALRDLLNNHILKSAMCAEAIVAGLSVETLEGTTLEVGCSGDMLTINGKAIISNKDILATNGVIHYIDELLIPDSAKTLFELAAESDVSTAIDLFRQAGLGNHLSGSERLTLLAPLNSVFKDGTPPIDAHTRNLLRNHIIKDQLASKYLYHGQTLETLGGKKLRVFVYRNSLCIENSCIAAHDKRGRYGTLFTMDRVLTPPMGTVMDVLKGDNRFSMLVAAIQSAGLTETLNREGVYTVFAPTNEAFRALPPRERSRLLGDAKELANILKYHIGDEILVSGGIGALVRLKSLQGDKLEVSLKNNVVSVNKEPVAEPDIMATNGVVHVITNVLQPPANRPQERGDELADSALEI
[1]
  adhesion of pc/293 cells to βig-h3: not adhered
[2]
  migration of HUVECs in transwells whose undersurface was coated with βig-h3: enhanced
[3]
  adhesion of β3/293 cells to βig-h3: strongly adhered
[4]
  binding of βig-h3 to HUVECs surface: bound to HUVECs surface in a dose-dependent manner

Source: patent US7919464B2, “Use of a peptide that interacts with αvβ3 integrin of endothelial cell” (Kyungpook National University Industry-Academic Cooperation …, priority 2003, dated 2011)
